Experimental data: patent publication US20240026017A1 (Kyowa Kirin, published 2024)
Where a chain is given by its changes, count along the chain named.

What was measured:
[1] = target: T1, human CC chemokine receptor 1 (human CCR1) (human, UniProt P32246 1-355); experiment: flow cytometry on CHO-S-hCCR1 cells; bound = fluorescence 10 times or more that of isotype control chDNP1
T1 construct: endogenous on THP-1 cells in the migration assays; also called hCCR1; CHO-S-hCCR1 (expressing cells)
T1 sequence: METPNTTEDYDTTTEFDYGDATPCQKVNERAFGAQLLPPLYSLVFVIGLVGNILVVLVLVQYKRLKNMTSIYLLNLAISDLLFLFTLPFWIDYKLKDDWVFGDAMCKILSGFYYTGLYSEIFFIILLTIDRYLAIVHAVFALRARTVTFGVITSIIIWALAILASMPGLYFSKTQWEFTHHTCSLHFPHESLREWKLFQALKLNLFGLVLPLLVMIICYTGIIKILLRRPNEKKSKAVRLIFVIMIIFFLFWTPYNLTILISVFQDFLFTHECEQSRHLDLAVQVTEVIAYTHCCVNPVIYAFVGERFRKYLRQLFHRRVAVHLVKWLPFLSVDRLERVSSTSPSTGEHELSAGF
Experimental: (§1) The antigen affinity of the chKM5908′ antibody, which is a VL-substituted chimeric antibody, was measured by flow cytometry using the CHO-S-hCCR1 cells produced in Example 2. The cells were collected by centrifugation, the supernatant was removed, and the cells were suspended in PBS (Staining Medium, hereinafter, abbreviated as SM) containing 2% fetal bovine serum (FBS), 0.05% NaN₃, and 1 mM EDTA. Next, the cells were seeded in a 96-well plate so that the number of cells is 1×10⁵ per well, and the chKM5908′ antibody was added at each final concentration of 10,000, 2,000, 400, 80, 16, and 3.2 ng/mL, and the reaction was performed at 4° C. for 60 minutes. After washing the cells with SM, Goat F (ab′)₂ Anti-Human IgG PE (γ chain specific) (Southern Biotech) diluted 500-fold with SM was added and reacted at 4° C. for 60 minutes. After washing the cells with SM, the cells were resuspended in 50 μL of SM, and the fluorescence intensity was measured by the flow cytometry (FACS Canto II, BD Biosciences).
1996 June; 33 (9):759-68, hereinafter, referred to as chDNP1)] were determined to be bound to the human CCR1.

[2] = target: T1, human CC chemokine receptor 1 (human …); experiment: flow cytometry on CHO-S-hCCR1 cells; bound = fluorescence 10 times or more that of isotype control hzDNP1
Experimental: as §1
Next, a modified antibody was obtained using the method described in Example 12-(3). […] Hereinafter referred to as hzDNP1)] were determined to bind to the human CCR1.

B1: chKM5908′ mut05 (antibody, V domains shown)
VH: QVQLKQSGPGLVQPSQSLSITCTVSGFSLNNYGVHWVRQPPGKGLEWLGVTWSAGTTVYNAAFISRLSISKDDSKSQVFFKMNSLQAGDTAIYYCAKDGSRYYTAMDYWGQGTSVTVSS
VL: DVVMTQTPLSLPVSLGDQASIFCRSSQSLVHRNGITFFHWYLQKPGQSPKLLIYKVSNRFSGVPDRFSGSGSGTDFTLKISRVAPDDLGVYFCSQGTHVPPTFGGGTKLEIK
- binding result [1]: binds

B2: chKM5908′ mut06 (antibody, V domains shown)
VH: B1 VH with T51I, V58A
VL: B1 VL
- binding result [1]: binds

B3: chKM5908′ mut04 (antibody, V domains shown)
VH: B1 VH with T51I
VL: B1 VL with F38A, V56I
- binding result [1]: binds

B4: hzKM5907 LV2bHV2a antibody (antibody, V domains shown)
VH: EVQLLESGGGLVQPGGSLRLSCAASGFTFSRYGMSWVRQAPGKRLEWVSSISATFTYTYYTDNVKGRFTISRDNSKNTLYLQMNSLRAEDTAVYYCARQDNYAWFDSWGQGTLVTVSS
VL: DIVMTQTPLSLPVTSGEPVSISCRSSQSIVHSNGNTFLEWYLKKPGQSPQLLIYKVSSRFSGVPDRFSGSGSGTDFTLKISRVEAEDVGVYYCFQGSHIPWTFGGGTKVEIK
notes: humanized; also called hzmAb5907 LV2bHV2a
- binding result [2]: binds

B5: hzKM5907 LV2bHV7 antibody (antibody, V domains shown)
VH: B4 VH with L4V, S49A, A92G, V93M, A97T
VL: B4 VL
notes: humanized; also called hzmAb5907 LV2bHV7
- binding result [2]: binds

B6: hzKM5907 LV2bHV3c antibody (antibody, V domains shown)
VH: B4 VH with A92G, A97T, R98K
VL: B4 VL
notes: humanized; also called hzmAb5907 LV2bHV3c
- binding result [2]: binds

B7: hzKM5907 LV0HV0 antibody (antibody, V domains shown)
VH: B4 VH with R44G, R98K
VL: B4 VL with V19A, K43Q
notes: humanized; also called hzmAb5907 LV0HV0
- binding result [2]: binds

B8: hzKM5907 LV1aHV0 antibody (antibody, V domains shown)
VH: B4 VH with R44G, R98K
VL: B4 VL with V19A
notes: humanized; also called hzmAb5907 LV1aHV0
- binding result [2]: binds

B9: hzKM5907 LV0HV7 antibody (antibody, V domains shown)
VH: B4 VH with L4V, S49A, A92G, V93M, A97T
VL: B4 VL with V19A, K43Q
notes: humanized; also called hzmAb5907 LV0HV7
- binding result [2]: binds

B10: hzKM5907 LV2bHV2b antibody (antibody, V domains shown)
VH: B4 VH with R44G, S49A
VL: B4 VL
notes: humanized; also called hzmAb5907 LV2bHV2b
- binding result [2]: binds

B11: hzKM5907 LV4HV0 antibody (antibody, V domains shown)
VH: B4 VH with R44G, R98K
VL: B4 VL with S15L, Q50K
notes: humanized; also called hzmAb5907 LV4HV0
- binding result [2]: binds

B12: hzKM5907 LV1cHV7 antibody (antibody, V domains shown)
VH: B4 VH with L4V, S49A, A92G, V93M, A97T
VL: B4 VL with K43Q
notes: humanized; also called hzmAb5907 LV1cHV7
- binding result [2]: binds

B13: hzKM5907 LV1aHV7 antibody (antibody, V domains shown)
VH: B4 VH with L4V, S49A, A92G, V93M, A97T
VL: B4 VL with V19A
notes: humanized; also called hzmAb5907 LV1aHV7
- binding result [2]: binds

B14: hzKM5907 LV2bHV3b antibody (antibody, V domains shown)
VH: B4 VH with S49A, A97T, R98K
VL: B4 VL
notes: humanized; also called hzmAb5907 LV2bHV3b
- binding result [2]: binds

B15: hzKM5907 LV2bHV0 antibody (antibody, V domains shown)
VH: B4 VH with R44G, R98K
VL: B4 VL
notes: humanized; also called hzmAb5907 LV2bHV0
- binding result [2]: binds

B16: hzKM5907 LV1cHV0 antibody (antibody, V domains shown)
VH: B4 VH with R44G, R98K
VL: B4 VL with K43Q
notes: humanized; also called hzmAb5907 LV1cHV0
- binding result [2]: binds

B17: hzKM5907 LV4HV7 antibody (antibody, V domains shown)
VH: B4 VH with L4V, S49A, A92G, V93M, A97T
VL: B4 VL with S15L, Q50K
notes: humanized; also called hzmAb5907 LV4HV7
- binding result [2]: binds

B18: hzKM5907 LV2aHV0 antibody (antibody, V domains shown)
VH: B4 VH with R44G, R98K
VL: B4 VL with V19A, Q50K
notes: humanized; also called hzmAb5907 LV2aHV0
- binding result [2]: binds

B19: hzKM5907 LV2bHV1 antibody (antibody, V domains shown)
VH: B4 VH with R98K
VL: B4 VL
notes: humanized; also called hzmAb5907 LV2bHV1
- binding result [2]: binds

B20: hzKM5907 LV2bHV4 antibody (antibody, V domains shown)
VH: B4 VH with R44G, S49A, A92G, A97T
VL: B4 VL
notes: humanized; also called hzmAb5907 LV2bHV4
- binding result [2]: binds

B21: hzKM5907 LV2aHV7 antibody (antibody, V domains shown)
VH: B4 VH with L4V, S49A, A92G, V93M, A97T
VL: B4 VL with V19A, Q50K
notes: humanized; also called hzmAb5907 LV2aHV7
- binding result [2]: binds

B22: hzKM5907 LV1bHV0 antibody (antibody, V domains shown)
VH: B4 VH with R44G, R98K
VL: B4 VL with V19A, K43Q, Q50K
notes: humanized; also called hzmAb5907 LV1bHV0
- binding result [2]: binds

B23: hzKM5907 LV1bHV7 antibody (antibody, V domains shown)
VH: B4 VH with L4V, S49A, A92G, V93M, A97T
VL: B4 VL with V19A, K43Q, Q50K
notes: humanized; also called hzmAb5907 LV1bHV7
- binding result [2]: binds

B24: hzmAb5-06 LV2aHV17 antibody (antibody, V domains shown)
VH: QVQLQQSGPGLVKPSQTLSITCTVSGFSLNNYGVHWVRQPPGKGLEWLGVIWSAGTTVYNAAAISRLTISKDDSKSQVSFKMSSLTAADTAIYYCAKDGSRYYTAMDYWGQGTLVTVSS
VL: DIVMTQSPLSLPVTLGEPASISCRSSQSLVHRNGITFFHWYLQKPGQSPKLLIYKISNRFSGVPDRFSGSGSGTDFTLKISRVEAEDVGVYYCSQGTHVPPTFGQGTKVEIK
notes: humanized
- binding result [2]: binds

B25: hzmAb5-06 LV4HV17 antibody (antibody, V domains shown)
VH: B24 VH
VL: B24 VL with Y92F, V109L
notes: humanized
- binding result [2]: binds

B26: hzmAb5-06 LV1aHV17 antibody (antibody, V domains shown)
VH: B24 VH
VL: B24 VL with L15P
notes: humanized
- binding result [2]: binds

B27: hzmAb5-06 LV1bHV17 antibody (antibody, V domains shown)
VH: B24 VH
VL: B24 VL with K50Q
notes: humanized
- binding result [2]: binds

B28: hzmAb5-06 LV0HV17 antibody (antibody, V domains shown)
VH: B24 VH
VL: B24 VL with L15P, K50Q
notes: humanized
- binding result [2]: binds

B29: hzmAb5-06 LV5HV17 antibody (antibody, V domains shown)
VH: B24 VH
VL: B24 VL with I2V, Y92F, V109L
notes: humanized
- binding result [2]: binds

B30: hzmAb5-06 LV2bHV17 antibody (antibody, V domains shown)
VH: B24 VH
VL: B24 VL with L15P, Y92F
notes: humanized
- binding result [2]: binds

B31: hzKM5916 LV0HV1 antibody (antibody, V domains shown)
VH: QVQLQESGGGLVKPGGSLKLSCAASGFTFSRNAMSWVRQTPDKRLEWVAYISSGSDYIYYADTVKGRFTISRDNAKNTLYLQMSSLKSEDTAMYYCTRFSYGYGKNAPDYWGQGTMVTVSS
VL: DIQMTQSPSSLSASVGDRVTITCKASQDINKYIAWYQQKPGKAPKLLIHYTSSLQPGVPSRFSGSGSGTDFSFTISSLQPEDLATYYCLQYDYTMTFGGGTKVEIK
notes: humanized; also called hzmAb5916 LV0HV1
- binding result [2]: binds

B32: hzKM5916 LV2HV1 antibody (antibody, V domains shown)
VH: B31 VH
VL: B31 VL with Q38H, A43G
notes: humanized; also called hzmAb5916 LV2HV1
- binding result [2]: binds

B33: hzKM5916 LV0HV0 antibody (antibody, V domains shown)
VH: B31 VH with T97A
VL: B31 VL
notes: humanized; also called hzmAb5916 LV0HV0
- binding result [2]: binds

B34: hzKM5916 LV0HV3 antibody (antibody, V domains shown)
VH: B31 VH with D42E, K87R
VL: B31 VL
notes: humanized; also called hzmAb5916 LV0HV3
- binding result [2]: binds

B35: hzKM5916 LV2HV3 antibody (antibody, V domains shown)
VH: B31 VH with D42E, K87R
VL: B31 VL with Q38H, A43G
notes: humanized; also called hzmAb5916 LV2HV3
- binding result [2]: binds
